From the supplement of paper PMC9112550, “Optimization of the antimicrobial peptide Bac7 by deep mutational scanning” (BMC Biology, 2022) come the findings set out here.
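Further: peptides expressed intracellularly from a pBAD plasmid library in pooled LB shake-flask culture, induced with 0.3% L-arabinose, DNA abundance read by NGS, three biological replicates, DESeq2 with apeglm shrinkage.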

The subject of the data set is Escherichia coli TOP10. The data set is described as follows: shrunken log2 fold change of peptide-encoding DNA abundance (4.5 h post-induction vs induction); higher = less antimicrobial activity (less host growth inhibition). The following applies: time post-induction: 4.5 h; library: site-saturation at positions 5, 18, 19, 20.
RRIRNRPPRLPRPRPRPDFDPRP: the “shrunken log2 fold change” value is -0.0771. RRIRERPPRLPRPRPRPYMLPRP: the “shrunken log2 fold change” value was -1.42. The figure for RRIRMRPPRLPRPRPRPFAYPRP is -0.157; for RRIRDRPPRLPRPRPRPRHFPRP it is -0.0107. As for RRIRSRPPRLPRPRPRPSYMPRP, the figure is -1.1; as for RRIRHRPPRLPRPRPRPVHSPRP, 0.0246; as for RRIRYRPPRLPRPRPRPGQHPRP, -0.179. Turning to RRIRSRPPRLPRPRPRPMYHPRP, the “shrunken log2 fold change” value is -0.762. As for RRIRGRPPRLPRPRPRPISKPRP, the figure is 0.0989. For the sequence RRIRFRPPRLPRPRPRPLMDPRP, the “shrunken log2 fold change” value is -0.0516. On to RRIRLRPPRLPRPRPRPLCCPRP, for which the “shrunken log2 fold change” value is -0.146. As to RRIRNRPPRLPRPRPRPVDTPRP, the “shrunken log2 fold change” value was found to be 0.033.

With RRIRFRPPRLPRPRPRPMVAPRP, the “shrunken log2 fold change” value stood at 0.297. The figure for RRIRGRPPRLPRPRPRPNGWPRP is 0.477; for RRIRVRPPRLPRPRPRPDVQPRP it is -0.0199. Turning to RRIRLRPPRLPRPRPRPTAYPRP, the “shrunken log2 fold change” value was -0.047.

Consider RRIRHRPPRLPRPRPRPYVMPRP, for which the “shrunken log2 fold change” value came to 0.0288.

For the sequence RRIRWRPPRLPRPRPRPSANPRP, the “shrunken log2 fold change” value was found to be 0.559. As for RRIRQRPPRLPRPRPRPRVFPRP, the “shrunken log2 fold change” value was -0.0984. For the sequence RRIRPRPPRLPRPRPRPSMDPRP, the “shrunken log2 fold change” value was -0.448.

RRIRYRPPRLPRPRPRPATWPRP: the “shrunken log2 fold change” value is -0.154. As for RRIRMRPPRLPRPRPRPKGVPRP, the “shrunken log2 fold change” value came out at 1.1. Turning to RRIRDRPPRLPRPRPRPMWHPRP, the “shrunken log2 fold change” value is -0.008. The figure for RRIRHRPPRLPRPRPRPPEKPRP is -0.00804; for RRIRKRPPRLPRPRPRPMRRPRP it is 0.762.

For the sequence RRIRKRPPRLPRPRPRPCRHPRP, the “shrunken log2 fold change” value is -0.00769. Regarding RRIRHRPPRLPRPRPRPLKQPRP, the “shrunken log2 fold change” value was -0.128.

In the case of RRIRVRPPRLPRPRPRPIVVPRP, the “shrunken log2 fold change” value is -0.129. Turning to RRIRRRPPRLPRPRPRPGILPRP, the “shrunken log2 fold change” value is -0.174. As for RRIRNRPPRLPRPRPRPRSTPRP, the figure is -0.0419; as for RRIRYRPPRLPRPRPRPNNDPRP, -1.14; as for RRIRHRPPRLPRPRPRPTNHPRP, -0.457. Regarding RRIRDRPPRLPRPRPRPCPFPRP, the “shrunken log2 fold change” value is -0.0587. Take RRIRFRPPRLPRPRPRPQFMPRP: the “shrunken log2 fold change” value was -1.06. On to RRIRTRPPRLPRPRPRPSHNPRP, for which the “shrunken log2 fold change” value was -0.681.

For the sequence RRIRQRPPRLPRPRPRPVFHPRP, the “shrunken log2 fold change” value is -0.107.

As for RRIRCRPPRLPRPRPRPIDYPRP, the “shrunken log2 fold change” value was -0.651.

As to RRIRVRPPRLPRPRPRPEQDPRP, the “shrunken log2 fold change” value came out at 0.173. Take RRIRNRPPRLPRPRPRPKLYPRP: the “shrunken log2 fold change” value is -0.289. Regarding RRIRVRPPRLPRPRPRPNLGPRP, the “shrunken log2 fold change” value is -0.185.

On to RRIRGRPPRLPRPRPRPGLEPRP, for which the “shrunken log2 fold change” value came out at 1.1. Take RRIRARPPRLPRPRPRPNDSPRP: the “shrunken log2 fold change” value was -0.225. Consider RRIRTRPPRLPRPRPRPCMMPRP, for which the “shrunken log2 fold change” value is -0.52. Consider RRIRERPPRLPRPRPRPECFPRP, for which the “shrunken log2 fold change” value turned out to be 0.435. RRIRVRPPRLPRPRPRPHTSPRP: the “shrunken log2 fold change” value is -0.643. As for RRIRQRPPRLPRPRPRPKFAPRP, the figure is 0.0489; as for RRIRHRPPRLPRPRPRPYEMPRP, -0.383. As for RRIRQRPPRLPRPRPRPQLAPRP, the figure is 0.0428; as for RRIRGRPPRLPRPRPRPQCGPRP, 0.601. Turning to RRIRFRPPRLPRPRPRPPIAPRP, the “shrunken log2 fold change” value is 0.31. In the case of RRIRVRPPRLPRPRPRPHYNPRP, the “shrunken log2 fold change” value is -0.366. As for RRIRQRPPRLPRPRPRPLIRPRP, the figure is -0.966. Regarding RRIRGRPPRLPRPRPRPMIWPRP, the “shrunken log2 fold change” value stood at 0.589. Turning to RRIRWRPPRLPRPRPRPHHFPRP, the “shrunken log2 fold change” value is -0.0138. With RRIRTRPPRLPRPRPRPPMIPRP, the “shrunken log2 fold change” value is -0.44. In the case of RRIRVRPPRLPRPRPRPPFVPRP, the “shrunken log2 fold change” value came out at 0.0393. For the sequence RRIRGRPPRLPRPRPRPTKKPRP, the “shrunken log2 fold change” value was determined as 0.689. The figure for RRIRGRPPRLPRPRPRPDCNPRP is 0.679; for RRIRQRPPRLPRPRPRPFPYPRP it is 0.0303; for RRIRCRPPRLPRPRPRPRDTPRP it is 0.0379. As for RRIRVRPPRLPRPRPRPKGVPRP, the figure is 0.472.

Consider RRIRPRPPRLPRPRPRPSDEPRP, for which the “shrunken log2 fold change” value is -0.244. Take RRIRARPPRLPRPRPRPKCHPRP: the “shrunken log2 fold change” value is 0.161.

As to RRIRVRPPRLPRPRPRPKITPRP, the “shrunken log2 fold change” value was -0.524. Consider RRIRCRPPRLPRPRPRPDSSPRP, for which the “shrunken log2 fold change” value is -0.026.

For RRIRSRPPRLPRPRPRPYTNPRP, the “shrunken log2 fold change” value was -1.46.

On to RRIRTRPPRLPRPRPRPVHNPRP, for which the “shrunken log2 fold change” value was -0.159. For the sequence RRIRYRPPRLPRPRPRPAWQPRP, the “shrunken log2 fold change” value came to 0.0499. In the case of RRIRVRPPRLPRPRPRPPECPRP, the “shrunken log2 fold change” value was -0.186.

As to RRIRGRPPRLPRPRPRPHILPRP, the “shrunken log2 fold change” value is -0.198. For RRIRMRPPRLPRPRPRPIRYPRP, the “shrunken log2 fold change” value stood at 0.0982. Consider RRIRGRPPRLPRPRPRPREPPRP, for which the “shrunken log2 fold change” value was 0.812.

Turning to RRIRERPPRLPRPRPRPFQIPRP, the “shrunken log2 fold change” value was -0.145. In the case of RRIRKRPPRLPRPRPRPPLYPRP, the “shrunken log2 fold change” value was found to be 0.948. Turning to RRIRSRPPRLPRPRPRPQWSPRP, the “shrunken log2 fold change” value was -0.176. On to RRIRPRPPRLPRPRPRPRMTPRP, for which the “shrunken log2 fold change” value is 0.288. On to RRIRWRPPRLPRPRPRPGDMPRP, for which the “shrunken log2 fold change” value amounted to 0.344. The figure for RRIRWRPPRLPRPRPRPFRTPRP is -0.16.

With RRIRVRPPRLPRPRPRPYFIPRP, the “shrunken log2 fold change” value was -0.72. Take RRIRHRPPRLPRPRPRPVKYPRP: the “shrunken log2 fold change” value was -0.0563. For RRIRGRPPRLPRPRPRPMIVPRP, the “shrunken log2 fold change” value came to 0.554. As for RRIRERPPRLPRPRPRPIFFPRP, the “shrunken log2 fold change” value turned out to be 0.0602. Take RRIRPRPPRLPRPRPRPNKCPRP: the “shrunken log2 fold change” value was -0.26.

In the case of RRIRKRPPRLPRPRPRPRYFPRP, the “shrunken log2 fold change” value is 0.135. As to RRIRKRPPRLPRPRPRPKTKPRP, the “shrunken log2 fold change” value stood at 0.411. Consider RRIRDRPPRLPRPRPRPTPVPRP, for which the “shrunken log2 fold change” value was 0.405. As to RRIRERPPRLPRPRPRPGFMPRP, the “shrunken log2 fold change” value is -0.136.

Regarding RRIRGRPPRLPRPRPRPSGTPRP, the “shrunken log2 fold change” value came to 0.913. As for RRIRDRPPRLPRPRPRPSFAPRP, the figure is 0.263; as for RRIRTRPPRLPRPRPRPNRVPRP, -0.0472; as for RRIRFRPPRLPRPRPRPWKHPRP, -0.587. As for RRIRGRPPRLPRPRPRPKLNPRP, the figure is 0.69. In the case of RRIRTRPPRLPRPRPRPFHDPRP, the “shrunken log2 fold change” value turned out to be 0.0356. Regarding RRIRYRPPRLPRPRPRPMMYPRP, the “shrunken log2 fold change” value was -0.00674. With RRIRNRPPRLPRPRPRPNPSPRP, the “shrunken log2 fold change” value was -0.00451. For the sequence RRIRARPPRLPRPRPRPRPEPRP, the “shrunken log2 fold change” value amounted to 0.686. As for RRIRYRPPRLPRPRPRPMCAPRP, the “shrunken log2 fold change” value was -0.208.

As for RRIRVRPPRLPRPRPRPRPTPRP, the “shrunken log2 fold change” value turned out to be 0.268. As for RRIRMRPPRLPRPRPRPVFTPRP, the figure is 0.128; as for RRIRHRPPRLPRPRPRPHHPPRP, 0.0301.

With RRIRRRPPRLPRPRPRPVGMPRP, the “shrunken log2 fold change” value came out at 1.08. RRIRRRPPRLPRPRPRPTMSPRP: the “shrunken log2 fold change” value was determined as 0.315. Consider RRIRARPPRLPRPRPRPMRGPRP, for which the “shrunken log2 fold change” value amounted to 1.56. In the case of RRIRCRPPRLPRPRPRPCGSPRP, the “shrunken log2 fold change” value is -0.0815. The figure for RRIRCRPPRLPRPRPRPMREPRP is 0.907. For the sequence RRIRPRPPRLPRPRPRPFSKPRP, the “shrunken log2 fold change” value was -0.0785. For RRIRRRPPRLPRPRPRPPTRPRP, the “shrunken log2 fold change” value is 0.688. On to RRIRRRPPRLPRPRPRPEPIPRP, for which the “shrunken log2 fold change” value is 0.378. Take RRIRPRPPRLPRPRPRPADFPRP: the “shrunken log2 fold change” value is -0.00303. On to RRIRERPPRLPRPRPRPHCKPRP, for which the “shrunken log2 fold change” value is -1.07. Regarding RRIRPRPPRLPRPRPRPSATPRP, the “shrunken log2 fold change” value turned out to be 0.195. The figure for RRIRFRPPRLPRPRPRPGVHPRP is -0.0827. Take RRIRARPPRLPRPRPRPDHRPRP: the “shrunken log2 fold change” value stood at 0.0154. Consider RRIRIRPPRLPRPRPRPYLMPRP, for which the “shrunken log2 fold change” value is -0.143. In the case of RRIRWRPPRLPRPRPRPEYYPRP, the “shrunken log2 fold change” value is -0.13.

For the sequence RRIRVRPPRLPRPRPRPMETPRP, the “shrunken log2 fold change” value is -0.074. RRIRYRPPRLPRPRPRPFVFPRP: the “shrunken log2 fold change” value is -0.95. As for RRIRHRPPRLPRPRPRPQTKPRP, the figure is -0.0667. Regarding RRIRGRPPRLPRPRPRPLQAPRP, the “shrunken log2 fold change” value stood at 1.86. Regarding RRIRYRPPRLPRPRPRPAYNPRP, the “shrunken log2 fold change” value was -0.638.

Consider RRIRDRPPRLPRPRPRPCTPPRP, for which the “shrunken log2 fold change” value is -0.153. In the case of RRIRDRPPRLPRPRPRPIDLPRP, the “shrunken log2 fold change” value was -0.0817. Consider RRIRRRPPRLPRPRPRPYSTPRP, for which the “shrunken log2 fold change” value was -0.295.

For the sequence RRIRNRPPRLPRPRPRPFDEPRP, the “shrunken log2 fold change” value was -0.305. For the sequence RRIRTRPPRLPRPRPRPMNIPRP, the “shrunken log2 fold change” value is -0.259.
